{"source": "paper PMC10865538", "about": "(2024)", "binders": {"B1": {"name": "sdAb12 (VHH)", "VHH": "EVQLVESGGGLVQPGGSLRLSCAASGNTFPARTMSWVRQAPGKGLELVASIGRGEITYYADSVKGRFTISRDNSKNTLYLQMNSLRAEDTAVYYCAAPAHGSWMSRRPHIYWGQGTLVTVSS"}, "B2": {"name": "sdAb38 (VHH)", "VHH": "EVQLVESGGGLVQPGGSLRLSCAASGNTSTRHPMSWVRQAPGKGLELVASIGRGEITYYADSVKGRFTISRDNSKNTLYLQMNSLRAEDTAVYYCAVCLRSVFVNCHNFAYWGQGTLVTVSS"}, "B3": {"name": "sdAb42 (VHH)", "VHH": "EVQLVESGGGLVQPGGSLRLSCAASGNTSTRHPMSWVRQAPGKGLELVASIGRGEITYYADSVKGRFTISRDNSKNTLYLQMNSLRAEDTAVYYCAVDAVFGGRHSHWGQGTLVTVSS"}, "B4": {"name": "sdAb10 (VHH)", "VHH": "EVQLVESGGGLVQPGGSLRLSCAASGNTFPARTMSWVRQAPGKGLELVASIGPGRSTIYADSVKGRFTISRDNSKNTLYLQMNSLRAEDTAVYYCAVAYTSGLALRGSFSYWGQGTLVTVSS"}, "B5": {"name": "sdAb39 (VHH)", "VHH": "EVQLVESGGGLVQPGGSLRLSCAASGNTSTRHPMSWVRQAPGKGLELVASIGRGEITYYADSVKGRFTISRDNSKNTLYLQMNSLRAEDTAVYYCAAFVDFLSRHNSRRPYPHGYWGQGTLVTVSS"}}}
{"biological_target": "SARS-CoV-2 S protein receptor-binding domain (R319-F541) (SARS-CoV-2, UniProt P0DTC2 319-541)", "assay": "ELISA", "units": {"EC50": "nM"}}
{"binder": "B1", "EC50": 60.1}
{"binder": "B2", "EC50": 46.1}
{"binder": "B3", "EC50": 2}
{"binder": "B4", "EC50": 22.2}
{"binder": "B5", "EC50": 4.3}
